Assay results published in patent US20100028340A1.

Assays:
[1] = target: T1, recombinant purified human RGM A (R&D Systems Cat# 2459-RM) (human) (UniProt Q96B86); assay: competition ELISA on coated hRGMA; competitor biotinylated chimeric 5F9
T1 sequence: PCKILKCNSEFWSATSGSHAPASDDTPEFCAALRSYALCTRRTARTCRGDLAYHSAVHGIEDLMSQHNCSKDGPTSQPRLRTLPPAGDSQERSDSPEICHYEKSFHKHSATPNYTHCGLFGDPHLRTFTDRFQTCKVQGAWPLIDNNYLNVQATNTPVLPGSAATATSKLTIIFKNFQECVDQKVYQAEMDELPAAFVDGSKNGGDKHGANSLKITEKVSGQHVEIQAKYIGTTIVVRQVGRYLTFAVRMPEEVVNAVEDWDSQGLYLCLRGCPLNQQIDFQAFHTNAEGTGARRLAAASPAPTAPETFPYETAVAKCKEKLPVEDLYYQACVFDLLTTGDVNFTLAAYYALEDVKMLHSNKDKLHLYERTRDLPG

[2] = target: T1, recombinant purified human RGM A (R&D Systems Cat# 2459-RM) (human); assay: SPR (Biacore 3000), antibody captured by anti-human IgG Fc, hRGMA in solution, 25 °C

B1: h5F9.21 (antibody, human IgG1, V domains shown)
VH: EVQLVESGGGVVQPGRSLRLSCAASGFTFSNYGMNWIRQAPGKGLEWIGMIYYDSSEKHYADSVKGRFTISRDNSKNTLYLQMNSLRAEDTAVYYCAKGTTPDYWGQGTMVTVSS
VL: DVVLTQSPLSLPVTLGQPASISCRSSQSLEYSDGYTFLEWFLQKPGQSPQLLIYEVSNRFSGVPDRFSGSGSGTDFTLKISRVEAEDVGVYYCFQATHDPLTFGQGTKLEIKR
B1 was tested, and the IC50 [1] was 0.6 µg/mL, the Kd [2] was 7.59 nM and the koff [2] was 0.00269 s⁻¹. The kon [2] was 355000 M⁻¹ s⁻¹.

B2: chimeric 5F9 (antibody, V domains shown)
VH: EVQLVESGGGLVQPGSSLKLSCVASGFTFSNYGMNWIRQAPKKGLEWIGMIYYDSSEKHYADSVKGRFTISRDNSKNTLYLEMNSLRSEDTAIYYCAKGTTPDYWGQGVMVTVSS
VL: DVVLTQTPVSLSVTLGDQASMSCRSSQSLEYSDGYTFLEWFLQKPGQSPQLLIYEVSNRFSGVPDRFIGSGSGTDFTLKISRVEPEDLGVYYCFQATHDPLTFGSGTKLEIKR
B2 gave a Kd [2] of 3.09 nM, a koff [2] of 0.00236 s⁻¹ and a kon [2] of 765000 M⁻¹ s⁻¹.

B3: h5F9.23 (antibody, human IgG1, V domains shown)
VH: EVQLVESGGGLVQPGGSLRLSCAASGFTFSNYGMNWIRQAPGKGLEWIGMIYYDSSEKHYADSVKGRFTISRDNSKNTLYLQMNSLRAEDTAVYYCAKGTTPDYWGQGTMVTVSS
VL: DVVLTQSPLSLPVTLGQPASISCRSSQSLEYSDGYTFLEWFQQRPGQSPRLLIYEVSNRFSGVPDRFSGSGSGTDFTLKISRVEAEDVGVYYCFQATHDPLTFGQGTKLEIKR
B3 was tested, and the IC50 [1] was 0.55 µg/mL, the Kd [2] was 4.37 nM and the koff [2] was 0.00221 s⁻¹. The kon [2] was 507000 M⁻¹ s⁻¹.

B4: h5F9.24 (antibody, human IgG1, V domains shown)
VH: EVQLVESGGGLVQPGGSLRLSCAASGFTFSNYGMNWIRQAPGKGLEWIGMIYYDSSEKHYADSVKGRFTISRDNSKNTLYLQMNSLRAEDTAVYYCAKGTTPDYWGQGTMVTVSS
VL: DVVLTQSPLSLPVTLGQPASISCRSSQSLEYSDGYTFLEWFQQRPGQSPRRLIYEVSNRFSGVPDRFSGSGSGTDFTLKISRVEAEDVGVYYCFQATHDPLTFGQGTKLEIKR
With B4 the IC50 [1] was 1.32 µg/mL.

B5: h5F9.25 (antibody, human IgG1, V domains shown)
VH: EVQLVESGGGLVQPGGSLRLSCAASGFTFSNYGMNWIRQAPGKGLEWIGMIYYDSSEKHYADSVKGRFTISRDNSKNTLYLQMNSLRAEDTAVYYCAKGTTPDYWGQGTMVTVSS
VL: DVVLTQSPLSLPVTLGQPASISCRSSQSLEYSDGYTFLEWFLQKPGQSPQLLIYEVSNRFSGVPDRFSGSGSGTDFTLKISRVEAEDVGVYYCFQATHDPLTFGQGTKLEIKR
B5 gave an IC50 [1] of 0.66 µg/mL, a Kd [2] of 5.78 nM and a koff [2] of 0.00329 s⁻¹. For the same binder, the kon [2] was 570000 M⁻¹ s⁻¹.
